Results from patent US20110300147A9, “Inhibiting tumor cell invasion, metastasis and angiogenesis” (The Scripps Research institute, priority 2005, published 2011).
Where two headings read alike, the source gives them in different places. Numbered stars: 1 amine (or outer) side, 2 acyl side, 3 side chain; on linkers, the order of the positions; unused ones are H or OH. Peptide text beside a SMILES is read from it. * marks the point of attachment. Doxorubicin(3'-N) = COc1cccc2c1C(=O)c1c(O)c3c(c(O)c1C2=O)C[C@@](O)(C(=O)CO)C[C@@H]3O[C@H]1C[C@H](N*)[C@H](O)[C@H](C)O1; Suc = O=C(CCC(=O)[*:2])[*:1]

Experiments:
control 293 cells [1] = test: WST-1 cytotoxicity assay, control 293 cells; settings: Homo sapiens, HEK293, 48 h
Experimental: (§1) Cytotoxic assays. The WST-1 cell proliferation reagent (Roche Molecular Chemicals, Germany) was used to determine cell proliferation by quantification of cellular metabolic activity. Control 293 cells and legumain+ 293 cells were cultivated in microtiter plates (5×10^3 cells per well in 100 μl) and were incubated with serial concentrations of legubicin or doxorubicin for 48 h. Subsequently, 10 μl of WST-1 solution (1 mg/ml WST-1, 25 μM -methyldibenzopyrazine methyl sulfate) was added per well, and mixtures were incubated for an additional 4 h. The tetrazolium salt WST-1 (4-[3-(4-lodophenyl)-2-(4-nitrophenyl)-2H-5-tetrazolio-1,3-benzene disfonate) was cleaved by the mitochondrial succinate-tetrazolium-reductase system to formazan in cells which directly correlates to the number of metabolically viable cells in the culture. The amount of formazan salt was quantified in three replicates by absorbance at 450 nm using a micro-plate reader (Molecular Devices, Palo Alto, Calif.).
(§2) Cytotoxicity assays. The WST-1 cell proliferation reagent (Roche Molecular Chemicals, Germany) was used to determine cell proliferation by quantization of cellular metabolic activity. […] The amount of formazan salt was quantified in three replicates by absorbance at 450 nm using a micro-plate reader (Molecular Devices, Palo Alto, Calif.).

legumain+ 293 cells = test: WST-1 cytotoxicity assay, legumain+ 293 cells
Experimental: as §1, §2

HTP cells = test: WST-1 cytotoxicity assay, HTP cells; format: cell-based; settings: 50% cell death, 48 h
Experimental: Cytotoxicity assays. The WST-1 cell proliferation reagent (Roche Molecular Chemicals, Germany) was used to determine cell proliferation by quantization of cellular metabolic activity. […] Subsequently, 10 μl of WST-1 solution (1 mg/ml WST-1, 25 μM -methyldibenzopyrazine methyl sulfate) was added per well, and mixtures were incubated for an additional 4 h. The tetrazolium salt WST-1 (4-[3-(4-Iodophenyl)-2-(4-nitrophenyl)-2H-5-tetrazolio-1,3-benzene disfonate) was cleaved by the mitochondrial succinate-tetrazolium-reductase system to formazan in cells in direct correlation with the number of metabolically viable cells in the culture. The amount of formazan salt was quantified in three replicates by absorbance at 450 nm using a micro-plate reader (Molecular Devices, Palo Alto, Calif.). All results were derived from replicate experiments with similar results.

[2] = tested on: CT26 murine colon carcinoma; test: CT26 syngeneic murine colon carcinoma model; format: in vivo, Balb/c mice
Excerpt: Animal models. […] Balb/C mice aged 4 to 6 weeks from the breeding colony were inoculated with 500,000 syngeneic CT26 tumor cells per site subcutaneously in the back. […] Treatment was repeated at 2 day intervals. The human 293 tumor models were generated in WEHI nude mice (The Scripps Research Institute breeding colony). […] Tumor growth and physical signs were monitored daily including any gross evidence of tumor necrosis, local tumor ulceration as well as evidence of toxicity including mobility, response to stimulus, eating, and weight of each animal. These procedures have been reviewed and approved by the Institutional Animal Care and Use Committee at The Scripps Research Institute. The work was conducted in The Scripps Research Institute facilities which are accredited by the Association for the Assessment and Accreditation of Laboratory Animal Care. The Scripps Research Institute maintains an assurance with the Public Health Service, is registered with the United States Department of Agriculture and is in compliance with all regulations relating to animal care and welfare.
Animal models. […] Treatment was three times per week for two weeks.

control 293 cells [3] = test: Dox and LEG-3 uptake assay, cells not expressing legumain
Experimental: Dox and LEG-3 uptake assay. Legumain^+ 293 cells or control 293 cells (2.5×10^5 cells/well) were seeded in six-well plates. The culture plates were then incubated for 24 h at 37° C. and 5% CO2, and the medium in each well was replaced with 2 ml of serum-free, antibiotic-free medium containing various concentrations of Dox or LEG-type prodrug compounds. The cells were incubated 1.5 h then washed three times with 2 ml of cold PBS. At this point, cell nuclear positivity for Dox could be analyzed by fluorescent microscopy. For quantitative assays the cells were then lysed by adding 0.5 ml of water and gently rotated on an orbital shaker for 5 min at room temperature. The lysed cells were added to 1.5 ml acidified ethanol, and incubated at 4° C. in the dark for 3 h. Total Dox and LEG content was measured fluorometrically using a Perkin-Elmer LS-50-B spectrofluorometer (excitation: 470 nm; emission: 590 nm). Fluorescence intensity was translated to drug concentration by use of a standard curve prepared from Dox and LEG solutions in cell lysates that were not previously exposed to the drug. Results are expressed as the mean±SD of at least three replicates for each experiment.

in vivo = test: in vivo; set-up: species or system Balb/c male mice; settings: male, Balb/c, mouse
[4] = gross toxicity (weight loss, death) of treated mice; format: in vivo
Experimental: Tumor growth and signs of physical discomfort were monitored daily. Such signs included any gross evidence of tumor necrosis, local tumor ulceration as well as evidence of toxicity including changes in the animal's mobility, response to stimulus, piloerection, eating, and weight. These procedures have been reviewed and approved by the Institutional Animal Care and Use Committee at The Scripps Research Institute. All the experiments were conducted in The Scripps Research Institute facilities which are accredited by the Association for the Assessment and Accreditation of Laboratory Animal Care. The Scripps Research Institute maintains an assurance with the Public Health Service, and is registered with the United States Department of Agriculture and is in compliance with all regulations relating to animal care and welfare.

[5] = mouse, in vivo, iv
cardiac myocytes = settings: for apoptosis of cardiac myocytes (TUNEL): treated mice
legumain = legumain (Homo sapiens, UniProt Q99538); test: cleavage of LEG compounds by legumain; format: biochemical
Sequence of legumain (Q99538 18-323, species assumed): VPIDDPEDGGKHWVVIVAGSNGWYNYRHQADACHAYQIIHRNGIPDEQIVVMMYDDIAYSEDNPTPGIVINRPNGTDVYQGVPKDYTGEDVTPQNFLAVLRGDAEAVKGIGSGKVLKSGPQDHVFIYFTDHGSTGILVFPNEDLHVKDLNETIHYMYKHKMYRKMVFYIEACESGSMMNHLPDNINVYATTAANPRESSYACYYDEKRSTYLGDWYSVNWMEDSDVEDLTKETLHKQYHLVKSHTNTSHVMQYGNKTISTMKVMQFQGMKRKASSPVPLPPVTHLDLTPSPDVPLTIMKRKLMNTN

[6] = tested on: legumain expressing cells; test: Dox and LEG-3 uptake assay, legumain expressing cells; format: cell-based, human; settings: legumain expressing cells in culture
Excerpt: Dox and LEG-3 uptake assay.

[7] = tissue distribution in mice bearing CT26 colon carcinomas; format: in vivo; settings: twelve hours post injection
Experimental: Tissue distribution. LEG compounds or Dox was injected i.p. into mice, 12 h later the animals were perfused and the Dox autofluorescence was measured following homogenization in 50% ethanol and then diluted with an equal volume of 50% ethanol containing 0.6 M HCl. Fluorescence measurements were obtained with excitation at 470 nm and emission at 590 nm, concentrations were derived by conversion from a Dox standard curve. Tissues from saline injected mice provided controls. Blood samples were to 0.75 ml with PBS, centrifuged, the pellets washed with PBS and Dox extracted with ethanol, 0.3 M HCl.
Legumain is selectively functional in the tumor microenvironment.

[8] = tested on: peripheral blood leukocytes; test: marrow toxicity, peripheral blood leukocyte counts; format: in vivo, Balb C mice; settings: six times in twelve days
Experimental: Determination of marrow toxicity. […] On day 7, retro-orbital sinus blood samples were collected into 10 mM EDTA, and counted by hemocytometer after lysis of red blood cells with an acidified methyl violet solution.

[9] = plasma pharmacokinetics in mice bearing CT26 tumors; settings: single intravenous bolus, MTD of Dox and molar equivalent of LEG-3, CT26 tumor mice

Question: With `COc1cccc2c1C(=O)c1c(O)c3c(c(O)c1C2=O)C[C@@](O)(C(=O)CO)C[C@@H]3O[C@H]1C[C@H](N)[C@H](O)[C@H](C)O1` [Dox, doxorubicin, reference compound] as the molecule, how does the EC50 (control 293 cells [1]) read?
Answer: 1.2 µM

Question: And the “cytotoxic effect on legumain+ 293 cells” value (legumain+ 293 cells)?
Answer: only slightly more resistant

Question: And the EC50 (HTP cells)?
Answer: 1.5 µM

Question: And the anti-tumor efficacy ([2]; doses approaching its maximum tolerable dose (MTD))?
Answer: failed to produce similar anti-tumor efficacy

Question: And the toxicity ([2]; i.p. 5 mg/kg three times at 2 day intervals)?
Answer: fatal

Question: And the cell uptake (control 293 cells [3])?
Answer: rapidly entered cells

Question: And the LD50 (in vivo; ip)?
Answer: 17.2 µmol/kg

Question: What about the MTD (in vivo; ip) of the same molecule?
Answer: 9.8 µmol/kg

Question: And the LD50 at 5 days (in vivo; ip, i.p. 5×)?
Answer: 3.4 µmol/kg

Question: What about the MTD at 5 days (in vivo; ip, i.p. 5×) of the same molecule?
Answer: 2.8 µmol/kg

Question: And the LD50 (in vivo; iv)?
Answer: 25.8 µmol/kg

Question: What about the MTD (in vivo; iv) of the same molecule?
Answer: 18.2 µmol/kg

Question: And the LD50 at 5 days (in vivo; iv, i.v. 5×)?
Answer: 5.1 µmol/kg

Question: What about the MTD at 5 days (in vivo; iv, i.v. 5×) of the same molecule?
Answer: 3.2 µmol/kg

Question: What about the “Average weight loss (%)” value ([4]; Dose 1.72 μmol/kg) of the same molecule?
Answer: 24%

Question: And the “Death (%)” value ([4]; Dose 1.72 μmol/kg)?
Answer: 35%

Question: And the “Average weight loss (%)” value ([4]; Dose 5.4 μmol/kg)?
Answer: 28%

Question: And the “Death (%)” value ([4]; Dose 5.4 μmol/kg)?
Answer: 75%

Question: And the “decline of plasma concentration” value [5]?
Answer: very rapidly declined

Question: What about the “apoptosis of cardiac myocytes (TUNEL)” value (cardiac myocytes) of the same molecule?
Answer: marked apoptosis

Question: With `COc1cccc2c1C(=O)c1c(O)c3c(c(O)c1C2=O)C[C@@](O)(C(=O)CO)C[C@@H]3O[C@H]1C[C@H](NC(=O)[C@H](CC(C)C)NC(=O)[C@H](CC(N)=O)NC(=O)[C@@H](NC(=O)CCNC(=O)CCC(=O)O)[C@@H](C)O)[C@H](O)[C@H](C)O1` [LEG-2, N-Succinyl-β-alanyl-L-threoinyl-L-Asparaginyl-L-Leucyl-Doxorubicin] as the molecule, how does the “in vivo tumoricidal activity” value ([2]; mice bearing CT26 tumors) read?
Answer: demonstrable in vivo tumoricidal efficacy

Question: And the cleavage by legumain (legumain)?
Answer: are cleaved by legumain

Question: With `COc1cccc2c1C(=O)c1c(O)c3c(c(O)c1C2=O)C[C@@](O)(C(=O)CO)C[C@@H]3O[C@H]1C[C@H](NC(=O)[C@H](CC(C)C)NC(=O)[C@H](CC(N)=O)NC(=O)[C@H](C)NC(=O)[C@H](C)NC(=O)CCC(=O)O)[C@H](O)[C@H](C)O1` [LEG-3] (Suc-AANL-{Doxorubicin(3'-N)}) as the molecule, how does the cell uptake (control 293 cells [3]; cell cultures not expressing legumain) read?
Answer: remained extracellular

Question: What about the cell uptake [6] of the same molecule?
Answer: the end product Dox was found in cells

Question: What about the “concentrations in cardiac, liver, kidney, spleen and lung tissues compared to Dox” value [7] of the same molecule?
Answer: reduced

Question: And the “content in tumor tissues relative to Dox” value ([7]; CT26 tumors)?
Answer: more than 10 fold

Question: And the LD50 (in vivo; ip)?
Answer: > 197 µmol/kg

Question: What about the MTD (in vivo; ip) of the same molecule?
Answer: > 197 µmol/kg

Question: What about the LD50 at 5 days (in vivo; ip, i.p. 5×) of the same molecule?
Answer: > 197 µmol/kg

Question: What about the MTD at 5 days (in vivo; ip, i.p. 5×) of the same molecule?
Answer: 98.7 µmol/kg

Question: What about the LD50 (in vivo; iv) of the same molecule?
Answer: > 197 µmol/kg

Question: What about the MTD (in vivo; iv) of the same molecule?
Answer: > 197 µmol/kg

Question: What about the LD50 at 5 days (in vivo; iv, i.v. 5×) of the same molecule?
Answer: 197 µmol/kg

Question: And the MTD at 5 days (in vivo; iv, i.v. 5×)?
Answer: 74 µmol/kg

Question: What about the “Average weight loss (%)” value ([4]; Dose 1.97 μmol/kg) of the same molecule?
Answer: 3%

Question: What about the “Death (%)” value ([4]; Dose 1.97 μmol/kg) of the same molecule?
Answer: 0%

Question: And the “Average weight loss (%)” value ([4]; Dose 4.9 μmol/kg)?
Answer: 5%

Question: What about the “Death (%)” value ([4]; Dose 4.9 μmol/kg) of the same molecule?
Answer: 0%

Question: What about the “Average weight loss (%)” value ([4]; Dose 49.4 μmol/kg) of the same molecule?
Answer: 7%

Question: What about the “Death (%)” value ([4]; Dose 49.4 μmol/kg) of the same molecule?
Answer: 0%

Question: And the “Average weight loss (%)” value ([4]; Dose 98.7 μmol/kg)?
Answer: 8%

Question: What about the “Death (%)” value ([4]; Dose 98.7 μmol/kg) of the same molecule?
Answer: 10%

Question: What about the “Average weight loss (%)” value ([4]; Dose 197.4 μmol/kg) of the same molecule?
Answer: 16%

Question: And the “Death (%)” value ([4]; Dose 197.4 μmol/kg)?
Answer: 50%

Question: What about the “toxicity based on weight loss and mortality” value ([4]; xenograft bearing mice (FIG. 13E)) of the same molecule?
Answer: negligible

Question: And the “reduction of total WBC counts” value ([8]; 4.94 μmol/kg)?
Answer: no reductions

Question: And the “reduction of total WBC counts” value ([8]; 10-fold higher dose than 4.94 μmol/kg)?
Answer: only a slight reduction

Question: And the “histological evidence of cardiac toxicity” value (cardiac myocytes; 49.4 μmol/kg)?
Answer: no histological evidence of cardiac toxicity

Question: And the “apoptosis of cardiac myocytes (TUNEL)” value (cardiac myocytes)?
Answer: not observed

Question: What about the “decline of plasma concentration” value [9] of the same molecule?
Answer: much slower
